Experimental data from PMC8943916.

Target: TIM (the TIM-EGFP-LacI bait of the FRAP experiment, not named)
Assay: FRAP

B1: TagRFP-PPP1R10-TND (domain or fragment)
chain: KLLNNWLTYSKTTNNIPLLQQILLTLQHLPLTVDHLKQNNTAKLVKQLSKSSEDEELRKLASVLVSDWMAVIRSQ
- FRAP half-life: 14.9 s
